Fewer inactive variants are shown than the library holds.
B1: TPR 5TU (parent)
chain: GGAUCUUCUCGAUCUAACAAAAAAGACAAAUCUGCCACAAAGCUUGAGAGCAUCUUCGGAUGCAGAGGCGGCAGCCUUCGGUGGCGCGAUAGCGCCAACGUUCUCAACUAUGACACGCAAAACGCGUGCUCCGUUGAAUGGAGUUUAUCAUG

Variants of: B1
Assay: polymerase ribozyme fitness, log enrichment relative to wild type (log ratio); higher = more active; in vitro selection for triplet polymerase activity
How it was run: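 Frozen incubation at −7 °C formed the core of a single, triplicate in vitro selection round applied to PCR-built, transcribed mutant libraries of each subunit of a heterodimeric triplet polymerase ribozyme. Extended constructs were gel-excised, captured with streptavidin beads and amplified by RT-PCR, and input and output libraries were Illumina-sequenced with a filter of ≥10 input reads and ≥1 read per output. Fitness is the logarithm of genotype enrichment relative to wild-type enrichment, with inverse-variance-weighted replicate averaging, and the logarithm is base 2.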

Point of comparison: GGAUCUUCUCGAUCUAACAAAAAAGACAACUCUGCCACAAAGCUUGAGAGCAUCUUCGGAUGCAGAGGCGGCAGCCUUUGGUGGCGCGAUAGCGCCAACGUUCUCAACUAUGACACGCUAAACGCGUGGUCCGGUGAAUGGAGUUUAUCGUG, “polymerase ribozyme fitness (log ratio)” value -4.04. Against it:
- GGAUCUUCUCGAUCUAACAAAAAAGACAACUCUGCCACAAAGCUUGAGUGCAUCUUGGGAUGCAGAGGCGGCAGCCUUAGGUGGCGCGAUAGCGCUAACGUUCUCAUCUAUGACACGCAAAACGCGUGCUCCGUUGAAUGGAGUUUAUCAUG — lower, ≤ -4.2
- GGAUCUUCUCGAUCUAACAAAAAAGACAACUCUGCCACAAAGCUUGAGAGCAUCAUGGGAUGCAGAGGCGGCAGCCUUCGGUGGCGCGAUAGUGCCAACGUUCUGAACUAUGACACGCAAAACUCGUGCUCCGUUGAAUGGAGUUUAUCAUG — lower, ≤ -4.2
- GGAUCUUCUCGAUCUAACAAAAAAGACAAGUCUGCCCCAAAGCUUGAGAGCAUCUUCGGAUGCAGAGGCGGCAGCCUUCGGUGGCGCGAUAGCCCCAACGUUCUCAACUAUGACACGCAAAACGCGUGCUCCGUUGAAUGGAGUUUAUCAUG — lower, ≤ -4.2
- GGAUCUUCUCGAUCUAACAAAAAAGACAACUCUGCCACAAAGCUUGAGAGCAUCUUCGGAUGCAGAGGCGGCAGCCUUCGGUGGCGCGAUAGUGCCAACGUUCUCAACUAUGACACGCAAAACGCGUGCUCCGUUGAAUGGAGUUUAUCAUG — lower, ≤ -4.2
- GGAUCUUCUCGAUCUAACAAAAAAGACAUAUCUGCCACAAAGCUUGAGAGCAUCUUCGGAAGCAGAGGCGGCAUCCUUCGGUGGCGCGAUAGCGCCAACGUUCUCAACUAUGACACGAAAAACGCGUGCACCGUUGAAUGGAGUUUAUCAUG — lower, ≤ -4.2
- GGAUCUUCUCGAUCUAACAAAAAAGACAACUCUGCCACAAAGCUUGAGAGCAUCUUCGGCUGCAGAGGCGGCAGCCUUCGGUGGCGCGAUAGCGCCAACGUUCUCAACUAUGACACGCAAAACGCGUGCUCCGUUGAAUGGAGUUUAUCAUG — lower, ≤ -4.2
- GGAUCUUCUCGAUCUAACAAAAAAGACAACUCUGCCAGAAAGCUUGAGCGCAUCUUCGGAAGCAGCCGCGGCAGCCUUCGGUGGCGCGAUAGGGCCAACGUUCUCAACUUUGACACGCAAAACCCGUGCUCCGUUGAAUGGAAUUUAUCAUG — lower, ≤ -4.2
- GGAUCUUCUCGAUCUAACAAAAAAGACAUAUCUGCCACAAAGCUUGAGAGCAUCUUCGGAUGCAGAGGCGGCAGCCUUCGGUGGCGCGAUAGCGCCAACGUUCUCAACUAUCACACGCAAGACGCGUGCUCCGUUUGAUGGAGUAUAUCAUG — lower, ≤ -4.2
- GGAUCUUCUCGAUCUAACAAAAAAGACAACUCUGCCAUAAAGCUUGAGAGCAUCUUCGGAUGCAGAGGCGGCAACCUUCGGUGGCGCGAUAGCGCCAACGUUCUCAACUAUGACACGCAAAACGCGUGCUCCGUUGAAUGGAGUUUAUCAUG — lower, ≤ -4.2
- GGAUCUUCUCGAUCUAACAAAAAAGACAACUCUGCCACAAAGCUUCAGAGCAUCUUCGGAUGCAGAGGCGGCGGCCUUCCGUGACGCGAUGGCGCCAACGUUCUCAACUAUGACACGCAAAACGCGUGCUCCGUUGAAUGGAGUUUAUCAUG — lower, ≤ -4.2
- GGAUCUUCUCGAUCUAACAAAAAAGACAACUCUGCCACAAAGCUUGAGAGCAUCUUCGGAUGCAGAGGCGGCUGCCUUCGGUGGGGCGAUAGGGCGAACGUUCUCAACUAUGACACGCAAAACGCGUGCUCCGUUGAAUGGAGUUUAUUAUG — lower, ≤ -4.2
- GGAUCUUCUCGAUCUAACAAAAAAGACAACACUGCCACAAAGCAUGAGAGCAUCAUGGGAUGCAGAGGCGGCAGCGUUCGGUGGCGCGAUAGCGCCAACGUUCUCAACUAUGACACGCAAAACGCGUGCUCCGUUGAAUGGAGUUUAUCAUG — lower, ≤ -4.2
- GGAUCUUCUCGAUCUAACAAAAAAGACAACUCUGCCACAAAGCUUGAGAGCAUCUUCGGAUGCAGAGGCGGCACAUUUCGGUGUCGAGAUAGCGCCAACGUUCUCAACUAUGACAGGCAAAACGCGUGCUCCGUUGAAUGGAGUUUAUCAUG — lower, ≤ -4.2
- GGAUCUUCUCGAUCUAACAAAAAAGACAACUCUGCCACAAAUCUUGAGAGCAUUUUCGGAUGGAGAGACGGCAGCCUUCGGUGGCGCGAUAGUGCCAACGUUCUCAACUAUGACACGCAAGACGCGUGCUCCGUUGAAUAGAGUUUAUCAUG — lower, ≤ -4.2
- GGAUCUUCUCGAUCUAACAAAAAAGACAACUCUGCCACACAGCUUGAGAGCAUCUACGGGUGCAGGGGCGGCAGCCUUCGGUGGCGCGUUAGAGCCAAUGUUCUCCACUAUGACACGCAAAACGCUUGCUUCGAUGAAUGGAGUUUAUCAUG — lower, ≤ -4.2
- GGAUCUUCUCGAUCUAACAAAAAAGACAACUCUGCCACAAAGCAUGAGAGUAUCUUCGGAUGCAGAGGCGGCAGCCCUCGGUGGCGCGAUAGCGCCAACGUUCUCAACUAUGACACGCAAAACGCGUGCUGCGUUGAAUGGAGUUUAUCAUG — lower, ≤ -4.2
- GGAUCUUCUCGAUCUAACAAAAAAGACAACUCUGCCACAAAGCUUGAGAGCAUUUUCGGAUGCAGAGGCUGCAGCCUUCGGUGGCGCGAUAGAGCCAACGUUCUCAACUAUGACACGCAUAACGCGUGCACCGUUGAGUGGAGUUUAUCAUG — lower, ≤ -4.2
- GGAUCUUCUCGAUCUAACAAAAAAGACAACUUUGCUACAAAGCUUGAGAGCAUCUUCGGAUGCAGAGGCUGCAGCCUUCGGUGGCGCGAUAGCGCCAACGUUCUCAACUAUGACACGCAAAACGCGUGCUCCGUUGAAAGGCGUUUAUCAUG — lower, ≤ -4.2

— the RNAGym collection of RNA variant scans (doi:10.1073/pnas.2313332121)
